Laboratory results taken from paper PMC7910581.

Target: T1, Nla28-DBD (Myxococcus xanthus (DK1622?)) (UniProt Q1DD46)
T1 sequence: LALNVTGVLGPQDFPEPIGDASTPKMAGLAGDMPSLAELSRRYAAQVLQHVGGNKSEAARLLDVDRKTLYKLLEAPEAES
Assay: EMSA
Details: EMSA: 25 mM Tris acetate, 8.0 mM magnesium acetate, 10 mM KCl, 1 mM DTT, pH 8.0, 30 min at 30 C; 2 uM Nla28-DBD, 1 ng Cy5-DNA

binding, binds:
CAGCAGGCGCTCGAGGTCCTCAAGGTCAAGAAGTTCGAAAGCGGCATGGTGGTGGACCCCGTCACCATCGAACCGGAGGCCCCGCTGGGCCGCGCGCTGGAGCTGATGCGCCTTCACGGCGTGTCCGGCATCCCGGTGGTGAAGGGCCAGCGACTGGTGGGCATCGTCACCAGCCGCGACGTGCGCTTCGAGACCAACTT (double strand) [Cy5-P3778]
GCTCGTGTCGCGTCCCTACATCCAGAACGCCGCTCGCAAGGCATTGGTCTCCGCCGTGAAGAGCATTGAGGATGCTCAGCAGGAGCTGGAGAGGACGCAGAAGCAGGAGGTGGAGTCGGCAGGCGCGGTCTCGCAGGCAGGGGGCGCGAAGTCCTCCGGCTAGTCAGGACTGTGCGAGGTCGTGTGGACGCTGTCCCTGT (double strand) [Cy5-P1286]
GCGTCTTCTTGTCCGTACCGCGGAAGCGCAGCAGGTAGGGGTTGGCGTAGAAGATGTTGCCGGGCTCGCGCTTGCCCACCCAGAACGTCTCGGGGGCAATCTCCACCGGCACGAGGCGGAGGTCGGAGCTCTGGCTCGGGCTTGGGACTGGGGCGATGGTGCTGCTCATGGGCGCGGCGTTCCTTCCCTTTCGGGTGTAT (double strand) [Cy5-P1579]
